Experimental data: publication PMC12439581 (mAbs, 2025)
“And” between values parts separate entries of the source, which are not always exact repeats. Identical values can stand only once.

T1: biotinylated α-cobratoxin from Naja kaouthia (Naja kaouthia, biotin through amine coupling (NHS-PEG4-Biotin), sites not stated)
T1 chain: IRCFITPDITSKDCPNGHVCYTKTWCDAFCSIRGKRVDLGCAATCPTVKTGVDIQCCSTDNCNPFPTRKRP


Tests used:
Settings in all cases: both partners purified
[1] = molecular target: T2, biotinylated α-elapitoxin-Dpp2d from Dendroaspis polylepis (Dendroaspis polylepis (black mamba), UniProt C0HJD7); experiment: BLI; […]; association at pH 7.4, dissociation at pH 5.5; 1:1 global fit
[2] = molecular target: T1, biotinylated α-cobratoxin from Naja …; experiment: BLI
[3] = molecular target: T2, biotinylated α-elapitoxin-Dpp2d from …; experiment: BLI; […]; association at pH 7.4, dissociation at pH 7.4; 1:1 global fit, […]
[4] = molecular target: T1, biotinylated α-cobratoxin from Naja …; experiment: BLI
[5] = molecular target: biotinylated α-cobratoxin from Naja kaouthia (Naja kaouthia, UniProt P01391); experiment: BLI

T2 sequence (C0HJD7 whole entry): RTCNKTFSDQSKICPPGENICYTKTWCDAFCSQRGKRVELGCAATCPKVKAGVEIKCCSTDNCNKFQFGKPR

| Binder | koff [1] [s⁻¹] | kon [2] [M⁻¹ s⁻¹] | kon [3] [M⁻¹ s⁻¹] | Kd [2] [nM] | Kd [3] [nM] | koff [3] [s⁻¹] | Kd [4] [nM] | koff [4] | kon [4] [M⁻¹ s⁻¹] | other results |
| --- | --- | --- | --- | --- | --- | --- | --- | --- | --- | --- |
| A01 Fab (Fab, V domains shown) VH: QVQLVQSGAEVKKPGSSVKVSCKASGGTFSSYAISWVRQAPGQGLEWMGGIIPIFGTANYAQKFQGRVTITADESTSTAYMELRSLRSDDTAVYYCARDNLGYCSGGSCYSDYYYYYMDVWGQGTLVTVSS VL: SYELTQPPSVSVAPGRTATITCEGDNIGQQIVHWYQQKPGQAPVAVISSDSDRPSGIPERFSGSNSGNTATLTISRVEAGDEADYYCQVWDSGSDHVVFGGGTKVTVL | 0.00295 | 44000 | 84000 |  |  |  |  |  |  |  |
| B11 Fab (Fab, V domains shown) VH: QVQLVQSGAEVKKPGSSVKVSCKASGGTFSSYAISWVRQAPGQGLEWMGGIIPIFGTANYAQKFQGRVTITADESTSTAYMELRSLRSDDTAVYYCARDNLGYCSGGSCYSDYYYYYMDVWGQGTLVTVSS VL: SYELTQPPSVSVAPGQTATITCGGHNIGSNIVHWYHQKPGQAPELVISHNTNRPSGIPERFSGSNSGSTATLTISRVEAVDEADYYCQVWDSSSEHVVFGGGTKVTVL | 0.00049 | 59000 | 69000 | 5.7 ± 1.1 | 1.4 ± 0.1 | 9e-05 |  |  |  |  |
| D11_Y49S scFv (scFv, V domains shown, source: E. coli BL21(DE3)) VH: QVQLVQSGAEVKKPGSSVKVSCKASGGTFSSYAISWVRQAPGQGLEWMGGIIPIFGTANYAQKFQGRVTITADESTSTAYMELRSLRSDDTAVYYCARDNLGYCSGGSCYSDYYYYYMDVWGQGTLVTVSS VL: NFMLTQPRSVSESPGKTVTISCTRSSGSIGSDYVHWYQQRPGSSPTTVISEDNQRPSGVPDRFSGSIDSSSNSASLTISGLKTEDEADYYCQSYDRSNHEVVFGGGTKLTVL |  |  |  |  |  |  | 48.8 | 0.00195 s⁻¹ and 0.00416 s⁻¹ | 40000 |  |
| D11_Y49A scFv (scFv, V domains shown, source: E. coli BL21(DE3)) VH: QVQLVQSGAEVKKPGSSVKVSCKASGGTFSSYAISWVRQAPGQGLEWMGGIIPIFGTANYAQKFQGRVTITADESTSTAYMELRSLRSDDTAVYYCARDNLGYCSGGSCYSDYYYYYMDVWGQGTLVTVSS VL: NFMLTQPRSVSESPGKTVTISCTRSSGSIGSDYVHWYQQRPGSSPTTVIAEDNQRPSGVPDRFSGSIDSSSNSASLTISGLKTEDEADYYCQSYDRSNHEVVFGGGTKLTVL |  |  |  |  |  |  | 68.8 | 0.0018 s⁻¹ and 0.00355 s⁻¹ | 26200 |  |
| C05 Fab, parental mAb 368_01_C05, with the N-glycosylation site of CDR-L3 removed (C05-NS) (Fab, V domains shown) VH: QVQLVQSGAEVKKPGSSVKVSCKASGGTFSSYAISWVRQAPGQGLEWMGGIIPIFGTANYAQKFQGRVTITADESTSTAYMELRSLRSDDTAVYYCARDNLGYCSGGSCYSDYYYYYMDVWGQGTLVTVSS VL: NFMLTQPHSVSESPGKTVTISCTRSSGSIASTYVHWYQQRPGSAPTTVIYEDNQRPSGVPDRFSGSIDSSSNSASLTISGLKTEDEADYYCQSYDSSSGSVVFGGGTKLTVL | 0.00072 | 51000 | 76000 | 71.2 ± 5.4 | 4.6 ± 0.47 | 0.00034 |  |  |  | koff [2]: 0.00366 s⁻¹ and 0.00946 s⁻¹ |
| G09 Fab (Fab, V domains shown) VH: QVQLVQSGAEVKKPGSSVKVSCKASGGTFSSYAISWVRQAPGQGLEWMGGIIPIFGTANYAQKFQGRVTITADESTSTAYMELRSLRSDDTAVYYCARDNLGYCSGGSCYSDYYYYYMDVWGQGTLVTVSS VL: SYELTQPPSVSVAPGRTATITCEGDNIGQQIVHWYRQKSDQAPVVVVYDGSRRPSGIPERFSGSNSGNTATLTISRVEAGDEADYYCQVWDITSDHVVFGGGTQLTVL | 0.00035 | 71000 | 156000 | 4.2 ± 2.8 | 1 ± 0.5 | 0.00015 |  |  |  |  |
| A04 Fab (Fab, V domains shown) VH: QVQLVQSGAEVKKPGSSVKVSCKASGGTFSSYAISWVRQAPGQGLEWMGGIIPIFGTANYAQKFQGRVTITADESTSTAYMELRSLRSDDTAVYYCARDNLGYCSGGSCYSDYYYYYMDVWGQGTLVTVSS VL: SYELTQPPSMSVAPGQTARITCGGDYIGGESVHWYQQKPGRAPVAVVYDDTHRPSGIPERFSGANSGNTATLTISKVEAGDEADYYCQVWDVSSDHVVFGGGTKLTVL | 0.00024 | 62000 | 161000 | 15.3 ± 14 | 0.6 ± 0.4 | 9e-05 |  |  |  |  |
| A01 scFv (scFv, V domains shown) VH: QVQLVQSGAEVKKPGSSVKVSCKASGGTFSSYAISWVRQAPGQGLEWMGGIIPIFGTANYAQKFQGRVTITADESTSTAYMELRSLRSDDTAVYYCARDNLGYCSGGSCYSDYYYYYMDVWGQGTLVTVSS VL: SYELTQPPSVSVAPGRTATITCEGDNIGQQIVHWYQQKPGQAPVAVISSDSDRPSGIPERFSGSNSGNTATLTISRVEAGDEADYYCQVWDSGSDHVVFGGGTKVTVL |  |  |  |  |  |  | 52.2 |  | 43200 |  |
| D11 scFv (scFv, V domains shown) VH: QVQLVQSGAEVKKPGSSVKVSCKASGGTFSSYAISWVRQAPGQGLEWMGGIIPIFGTANYAQKFQGRVTITADESTSTAYMELRSLRSDDTAVYYCARDNLGYCSGGSCYSDYYYYYMDVWGQGTLVTVSS VL: NFMLTQPRSVSESPGKTVTISCTRSSGSIGSDYVHWYQQRPGSSPTTVIYEDNQRPSGVPDRFSGSIDSSSNSASLTISGLKTEDEADYYCQSYDRSNHEVVFGGGTKLTVL |  |  |  |  |  |  | 44.4 | 0.00177 s⁻¹ and 0.00189 s⁻¹ | 39900 |  |
| D11_E50A scFv (scFv, V domains shown, source: E. coli BL21(DE3)) VH: QVQLVQSGAEVKKPGSSVKVSCKASGGTFSSYAISWVRQAPGQGLEWMGGIIPIFGTANYAQKFQGRVTITADESTSTAYMELRSLRSDDTAVYYCARDNLGYCSGGSCYSDYYYYYMDVWGQGTLVTVSS VL: NFMLTQPRSVSESPGKTVTISCTRSSGSIGSDYVHWYQQRPGSSPTTVIYADNQRPSGVPDRFSGSIDSSSNSASLTISGLKTEDEADYYCQSYDRSNHEVVFGGGTKLTVL |  |  |  |  |  |  | 158 | 0.00469 s⁻¹ and 0.0134 s⁻¹ | 29700 |  |
| A12 Fab (Fab, V domains shown) VH: QVQLVQSGAEVKKPGSSVKVSCKASGGTFSSYAISWVRQAPGQGLEWMGGIIPIFGTANYAQKFQGRVTITADESTSTAYMELRSLRSDDTAVYYCARDNLGYCSGGSCYSDYYYYYMDVWGQGTLVTVSS VL: NFMLTQPHSVSESPGKTVTFSCTRSSGRIVSDYVHWYQQRPGSAPTTVIYEDNQRPSGVPDRFSGSIDSSSNSASLTISGLKTEDEADYYCQSYDSSNAYVVFGGGTKVTVL |  |  |  |  |  |  |  |  |  | binding result [5]: binds |
| E01 Fab (Fab, V domains shown) VH: QVQLVQSGAEVKKPGSSVKVSCKASGGTFSSYAISWVRQAPGQGLEWMGGIIPIFGTANYAQKFQGRVTITADESTSTAYMELRSLRSDDTAVYYCARDNLGYCSGGSCYSDYYYYYMDVWGQGTLVTVSS VL: NFMLTQPRSVSESPGKTVTISCTRSSGSIGSDYVHWYQQRPGSSPTTVIYEDNRRPSGVPDRFSGSIASSANSASLTISGLRPEDEADYYCQSYDSTTNHVVFGGGTKVTVL |  |  |  |  |  |  |  |  |  | binding result [5]: binds |
| 368_01_C05 Fab with the CDR-L3 glycosylation site at Asn95 removed (Fab, V domains shown, also called parent mAb; parental mAb) VH: QVQLVQSGAEVKKPGSSVKVSCKASGGTFSSYAISWVRQAPGQGLEWMGGIIPIFGTANYAQKFQGRVTITADESTSTAYMELRSLRSDDTAVYYCARDNLGYCSGGSCYSDYYYYYMDVWGQGTLVTVSS VL: NFMLTQPHSVSESPGKTVTISCTRSSGSIASTYVHWYQQRPGSAPTTVIYEDNQRPSGVPDRFSGSIDSSSNSASLTISGLKTEDEADYYCQSYDSSSGSVVFGGGTKLTVL |  |  |  |  |  |  |  |  |  | binding result [5]: binds |
